Measurements from US20260132197A1 (NANJING LEGEND BIOTECH, published 2026).
Numbering of substitutions follows the chain as printed. Names and notes keep the numbering of the source.

Tests used:
[1] = biological target: T1, wild type human CD47 (Acro Biosystems, cat. no. CD7-H5227) (human, UniProt Q08722 19-139); assay: SPR, IgG captured, CD47 in flow; exp 1;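 further: biacore T200 SPR using IgG from supernatants of transfected HEK293 cells, rate constants fitted to association and dissociation curves, Kd derived from koff over kon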
T1 construct: Bought protein used as SPR analyte; also called Human CD47 wt; wild-type CD47

Human CD47-C33G [2] = biological target: T2, Human CD47-C33G (human, UniProt Q08722 19-135); assay: SPR, IgG captured, CD47 in flow; exp 1;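 further: biacore T200 SPR using IgG from supernatants of transfected HEK293 cells, rate constants fitted to association and dissociation curves, Kd derived from koff over kon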
T2 construct: also called CD47 mutein with C33G mutation

[3] = biological target: T3, human CD47 on cells (SHP-77 tumor cells, human red blood cells, CCRF-CEM cells, human CD47 CHO-K1 stable cell … (human, UniProt Q08722 19-323)); assay: flow cytometry on human CD47 CHO-K1 cells; plateau not reached, not accurate
T3 construct: whole, on cells; also called RBC

[4] = biological target: T3, human CD47 on cells (SHP-77 tumor …); assay: flow cytometry on SHP-77 cells
[5] = biological target: T4, cynomolgus CD47 on CHO-K1 stable cell line (cynomolgus, UniProt A0A5F8AK49 19-323 (rhesus entry)); assay: flow cytometry on cynomolgus CD47 CHO-K1 cells; plateau not reached, not accurate
T4 construct: whole, on cells; also called cynomolgus CD47/CHO-K1

[6] = biological target: T3, human CD47 on cells (SHP-77 tumor …); assay: flow cytometry on human RBCs;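 further: antibody binding measured by flow cytometry as geometric mean fluorescence intensity over a range of antibody concentrations, with EC50 and maximum taken from a sigmoidal dose-response fit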
Human CD47-C33G [7] = biological target: T2, Human CD47-C33G; assay: SPR, IgG captured, CD47 in flow; exp 2; estimated, out of instrument limit
[8] = biological target: T1, wild type human CD47 (Acro Biosystems, …); assay: SPR, IgG captured, CD47 in flow; exp 2
Human CD47-C33G [9] = biological target: T2, Human CD47-C33G; assay: SPR, IgG captured, CD47 in flow; exp 2
[10] = biological target: T1, wild type human CD47 (Acro Biosystems, …); assay: SPR, IgG captured, CD47 in flow; exp 4
Human CD47-C33G [11] = biological target: T2, Human CD47-C33G; assay: SPR, IgG captured, CD47 in flow; exp 4
[12] = biological target: T3, human CD47 on cells (SHP-77 tumor …); assay: flow cytometry on human CD47 CHO-K1 cells
[13] = biological target: T4, cynomolgus CD47 on CHO-K1 stable cell …; assay: flow cytometry on cynomolgus CD47 CHO-K1 cells
[14] = biological target: T3, human CD47 on cells (SHP-77 tumor …); assay: cell-based or functional assay
[15] = biological target: T1, wild type human CD47 (Acro Biosystems, …); assay: SPR, IgG captured, CD47 in flow; exp 3;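 further: other target is a CD47 mutein carrying C33G, used to obtain true monovalent affinity, with kon and koff fitted from SPR binding curves and KD derived from both rates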
Human CD47-C33G [16] = biological target: T2, Human CD47-C33G; assay: SPR, IgG captured, CD47 in flow; exp 3;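 further: other target is a CD47 mutein carrying C33G, used to obtain true monovalent affinity, with kon and koff fitted from SPR binding curves and KD derived from both rates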
[17] = biological target: T1, wild type human CD47 (Acro Biosystems, …); assay: SPR, IgG captured, CD47 in flow; exp 4; remark: listed apart in the source
Human CD47-C33G [18] = biological target: T2, Human CD47-C33G; assay: SPR, IgG captured, CD47 in flow; exp 4; remark: listed apart in the source
Human CD47-C33G [19] = biological target: T2, Human CD47-C33G; assay: SPR, IgG captured, CD47 in flow; exp 2; remark: listed apart in the source
[20] = biological target: T1, wild type human CD47 (Acro Biosystems, …); assay: SPR, IgG captured, CD47 in flow; exp 2; remark: listed apart in the source
Human CD47-C33G [21] = biological target: T2, Human CD47-C33G; assay: SPR, IgG captured, CD47 in flow; exp 2; remark: listed apart in the source
Human CD47-C33G [22] = biological target: T2, Human CD47-C33G; assay: SPR, IgG captured, CD47 in flow; exp 2; estimated, out of instrument limit; remark: listed apart in the source

B1: 108VH5.M6 / 108VL1.M5 (antibody, human IgG4 S228P, kappa, V domains shown)
VH: EVQLVQSGAEVKKPGASVKVSCKASGYTFTHHYMHWVRQAPGQGLEWMGMIDASDSETRLSQKFKDRVTMTRDTSTSTVYMELSSLRSEDTAVYYCARLGRYYFDYWGQGTLVTVSS
VL: EIVLTQSPATLSLSPGERATLSCRASQSVSSYLAWYQQKPGQAPRLLIYGASNRATGIPARFSGSGSGTDFTLTISSLEPEDFAVYYCGESYGHLYTFGGGTKVEIKR
notes: Full-length IgG4 (S228P), kappa; also called VH5.M6 VL1.M5
Kd [1]: 8 nM
koff [1]: 0.0039 s⁻¹
kon [1]: 490000 M⁻¹ s⁻¹
Kd (Human CD47-C33G [2]): 800 nM
koff (Human CD47-C33G [2]): 0.097 s⁻¹
kon (Human CD47-C33G [2]): 120000 M⁻¹ s⁻¹
EC50 [3]: 20 nM
EC50 [4]: 25.1 nM
Fitted Maximal MFI [4]: 6250 MFI
EC50 [5]: 22.5 nM
EC50 [6]: 11.1 nM
Fitted Maximal MFI [6]: 9460 MFI

B2: 108VH5.M11 / 108VL1.M5 (antibody, human IgG4 S228P, kappa, V domains shown)
VH: B1 VH with M34I, L60Y, S61A, K65Q, D66G
VL: B1 VL
notes: Full-length IgG4 (S228P), kappa; also called VH5.M11 VL1.M5
Kd (Human CD47-C33G [7]): > 530 nM
koff (Human CD47-C33G [7]): > 0.1 s⁻¹
Kd [8]: 12 nM
koff [8]: 0.0032 s⁻¹
kon [8]: 260000 M⁻¹ s⁻¹
kon (Human CD47-C33G [9]): 190000 M⁻¹ s⁻¹
EC50 [4]: 797 nM
Fitted Maximal MFI [4]: 4000 MFI
EC50 [6]: 178 nM
Fitted Maximal MFI [6]: 1540 MFI

B3: 108VH5.M15 / 108VL1.M5 (antibody, human IgG4 S228P, kappa, V domains shown)
VH: B1 VH with Y33W, M34I, E57S, L60Y, S61A, K65Q, D66G
VL: B1 VL
notes: Full-length IgG4 (S228P), kappa; also called VH5.M15 VL1.M5
Kd (Human CD47-C33G [7]): > 630 nM
koff (Human CD47-C33G [7]): > 0.1 s⁻¹
Kd [8]: 22 nM
koff [8]: 0.0048 s⁻¹
kon [8]: 220000 M⁻¹ s⁻¹
kon (Human CD47-C33G [9]): 160000 M⁻¹ s⁻¹
EC50 [4]: 396 nM
Fitted Maximal MFI [4]: 3680 MFI
EC50 [6]: 155 nM
Fitted Maximal MFI [6]: 926 MFI

B4: 108VH5.M23 / 108VL1.M5 (antibody, human IgG4 S228P, kappa, V domains shown)
VH: B1 VH with Y33W, S56K, L60Y, S61A, K65Q, D66G
VL: B1 VL
notes: Full-length IgG4 (S228P), kappa; also called VH5.M23 VL1.M5
Kd [10]: 6.4 nM
koff [10]: 0.0028 s⁻¹
kon [10]: 440000 M⁻¹ s⁻¹
Kd (Human CD47-C33G [11]): 33 nM
koff (Human CD47-C33G [11]): 0.0058 s⁻¹
kon (Human CD47-C33G [11]): 170000 M⁻¹ s⁻¹
EC50 [12]: 2.7 nM
EC50 [4]: 8.1 nM
Fitted Maximal MFI [4]: 42100 MFI
EC50 [13]: 3.2 nM
CCRF-CEM phagocytosis EC50 [14]: 0.33 nM
CCRF-CEM phagocytosis, Phagocytosis (%) [14]: 64%
EC50 [6]: 5.8 nM
Fitted Maximal MFI [6]: 38800 MFI

B5: 108VH5.M27 / 108VL1.M5 (antibody, human IgG4 S228P, kappa, V domains shown)
VH: B1 VH with Y33W, S56Y, L60Y, S61A, K65Q, D66G
VL: B1 VL
notes: Full-length IgG4 (S228P), kappa; also called VH5.M27 VL1.M5
Kd [10]: 7.4 nM
koff [10]: 0.0036 s⁻¹
kon [10]: 490000 M⁻¹ s⁻¹
Kd (Human CD47-C33G [11]): 39 nM
koff (Human CD47-C33G [11]): 0.0085 s⁻¹
kon (Human CD47-C33G [11]): 220000 M⁻¹ s⁻¹
EC50 [12]: 2.6 nM
EC50 [4]: 9 nM
Fitted Maximal MFI [4]: 36500 MFI
EC50 [13]: 3.4 nM
CCRF-CEM phagocytosis EC50 [14]: 0.28 nM
CCRF-CEM phagocytosis, Phagocytosis (%) [14]: 64.3%
EC50 [6]: 4.7 nM
Fitted Maximal MFI [6]: 26900 MFI

B6: 108VH10.Mk / 108VL10.Me (antibody, V domains shown)
VH: EVQLVESGGGLVQPGGSLRLSCAASGFTFSHHWIHWVRQAPGKGLEWVAMIDASDSETRLSQKVKDRFTISADTSKNTAYLQMNSLRAEDTAVYYCSRLGRYYFDYWGQGTLVTVSS
VL: DIQMTQSPSSLSASVGDRVTITCRASQSISSYLNWYQQKPGKAPKLLIYGASSRYSGVPSRFSGSRSGTDFTLTISSLQPEDFATYYCGESYGHLYTFGQGTKVEIK
notes: 4D5-framework series; also called VH10.Mk VL10.Me
Kd [15]: 9 nM
koff [15]: 0.0086 s⁻¹
kon [15]: 950000 M⁻¹ s⁻¹
Kd (Human CD47-C33G [16]): 87 nM
koff (Human CD47-C33G [16]): 0.019 s⁻¹
kon (Human CD47-C33G [16]): 210000 M⁻¹ s⁻¹
EC50 [3]: 5.4 nM
EC50 [4]: 5.3 nM
Fitted Maximal MFI [4]: 30000 MFI
CCRF-CEM phagocytosis EC50 [14]: 0.29 nM
CCRF-CEM phagocytosis, Phagocytosis (%) [14]: 57.6%
EC50 [5]: 6.4 nM
EC50 [6]: 3.9 nM
Fitted Maximal MFI [6]: 21700 MFI

B7: 108VH10.Mr / 108VL10.Me (antibody, V domains shown)
VH: B6 VH with S61V, Q62D, K63S, D66G
VL: B6 VL
notes: 4D5-framework series; constant regions not restated for this series; also called VH10.Mr VL10.Me
EC50 [3]: 15.7 nM
Kd [17]: 8.8 nM
koff [17]: 0.0031 s⁻¹
kon [17]: 360000 M⁻¹ s⁻¹
Kd (Human CD47-C33G [18]): 160 nM
koff (Human CD47-C33G [18]): 0.025 s⁻¹
kon (Human CD47-C33G [18]): 150000 M⁻¹ s⁻¹
EC50 [4]: 14.4 nM
Fitted Maximal MFI [4]: 25400 MFI
CCRF-CEM phagocytosis EC50 [14]: 0.43 nM
CCRF-CEM phagocytosis, Phagocytosis (%) [14]: 49.8%
EC50 [5]: 49.9 nM
EC50 [6]: 8.1 nM
Fitted Maximal MFI [6]: 15700 MFI

B8: 108VH10.Mq / 108VL10.Me (antibody, V domains shown)
VH: B6 VH with Q62D, K63S, D66G
VL: B6 VL
notes: 4D5-framework series; constant regions not restated for this series; also called VH10.Mq VL10.Me
EC50 [3]: 6.4 nM
Kd [17]: 7.5 nM
koff [17]: 0.0045 s⁻¹
kon [17]: 600000 M⁻¹ s⁻¹
Kd (Human CD47-C33G [18]): 120 nM
koff (Human CD47-C33G [18]): 0.024 s⁻¹
kon (Human CD47-C33G [18]): 190000 M⁻¹ s⁻¹
EC50 [4]: 8 nM
Fitted Maximal MFI [4]: 27400 MFI
CCRF-CEM phagocytosis EC50 (nM); plateau not reached [14]: 2.3 nM
EC50 [5]: 8.4 nM
EC50 [6]: 3.9 nM
Fitted Maximal MFI [6]: 19400 MFI

B9: 108VH10 / 108VL10.Mb (antibody, V domains shown)
VH: B6 VH with F27Y, T28S, S30T, A53P, V64F
VL: B6 VL with Q27E, S28N, I29V, S30G, S31T, L33I, N34S, G50A, S53N, S56T
notes: 4D5-framework series; constant regions not restated for this series; also called VH10 VL10.Mb
fold reduction of mono-valent binding affinity against the straight-graft antibody (Human CD47-C33G [19]): 7.7 fold
Kd [20]: 38 nM
koff [20]: 0.011 s⁻¹
kon [20]: 290000 M⁻¹ s⁻¹
Kd (Human CD47-C33G [21]): 330 nM
koff (Human CD47-C33G [21]): 0.016 s⁻¹
kon (Human CD47-C33G [21]): 47000 M⁻¹ s⁻¹

B10: 108VH10.Mc / 108VL10.M1 (antibody, V domains shown)
VH: B6 VH with F27Y, T28S, S30T, H35S, A53P, V64F
VL: B6 VL with Q27E, S28N, I29V, S30G, S31T, L33I, N34S, S53N, S56T
notes: 4D5-framework series; constant regions not restated for this series; also called VH10.Mc VL10.M1
Kd [20]: 21 nM
koff [20]: 0.0054 s⁻¹
kon [20]: 250000 M⁻¹ s⁻¹
kon (Human CD47-C33G [21]): 61000 M⁻¹ s⁻¹
Kd (Human CD47-C33G [22]): > 1600 nM
koff (Human CD47-C33G [22]): > 0.1 s⁻¹

B11: 108VH10.Mf / 108VL10.M1 (antibody, V domains shown)
VH: B6 VH with F27Y, T28S, S30T, A53P, S61V, Q62D, K63S, D66G
VL: B6 VL with Q27E, S28N, I29V, S30G, S31T, L33I, N34S, S53N, S56T
notes: 4D5-framework series; constant regions not restated for this series; also called VH10.Mf VL10.M1
fold reduction of mono-valent binding affinity compared to 108VH10 (Human CD47-C33G [19]): 6.7 fold
Kd [20]: 30 nM
koff [20]: 0.0071 s⁻¹
kon [20]: 230000 M⁻¹ s⁻¹
Kd (Human CD47-C33G [21]): 290 nM
koff (Human CD47-C33G [21]): 0.014 s⁻¹
kon (Human CD47-C33G [21]): 49000 M⁻¹ s⁻¹

B12: Hu5F9 (antibody, V domains shown)
VH: QVQLVQSGAEVKKPGASVKVSCKASGYTFTNYNMHWVRQAPGQRLEWMGTIYPGNDDTSYNQKFKDRVTITADTSASTAYMELSSLRSEDTAVYYCARGGYRAMDYWGQGTLVTVSS
VL: DIVMTQSPLSLPVTPGEPASISCRSSQSIVYSNGNTYLGWYLQKPGQSPQLLIYKVSNRFSGVPDRFSGSGSGTDFTLKISRVEAEDVGVYYCFQGSHVPYTFGQGTKLEIK
EC50 [13]: 0.6 nM
